Data taken from patent publication US20060281079.
Read-outs that look alike come from different tables or passages of the source.

Test system: R2 protein (R2Bm reverse transcriptase/endonuclease) (Bombyx mori)
Sequence (chain, as listed by the source): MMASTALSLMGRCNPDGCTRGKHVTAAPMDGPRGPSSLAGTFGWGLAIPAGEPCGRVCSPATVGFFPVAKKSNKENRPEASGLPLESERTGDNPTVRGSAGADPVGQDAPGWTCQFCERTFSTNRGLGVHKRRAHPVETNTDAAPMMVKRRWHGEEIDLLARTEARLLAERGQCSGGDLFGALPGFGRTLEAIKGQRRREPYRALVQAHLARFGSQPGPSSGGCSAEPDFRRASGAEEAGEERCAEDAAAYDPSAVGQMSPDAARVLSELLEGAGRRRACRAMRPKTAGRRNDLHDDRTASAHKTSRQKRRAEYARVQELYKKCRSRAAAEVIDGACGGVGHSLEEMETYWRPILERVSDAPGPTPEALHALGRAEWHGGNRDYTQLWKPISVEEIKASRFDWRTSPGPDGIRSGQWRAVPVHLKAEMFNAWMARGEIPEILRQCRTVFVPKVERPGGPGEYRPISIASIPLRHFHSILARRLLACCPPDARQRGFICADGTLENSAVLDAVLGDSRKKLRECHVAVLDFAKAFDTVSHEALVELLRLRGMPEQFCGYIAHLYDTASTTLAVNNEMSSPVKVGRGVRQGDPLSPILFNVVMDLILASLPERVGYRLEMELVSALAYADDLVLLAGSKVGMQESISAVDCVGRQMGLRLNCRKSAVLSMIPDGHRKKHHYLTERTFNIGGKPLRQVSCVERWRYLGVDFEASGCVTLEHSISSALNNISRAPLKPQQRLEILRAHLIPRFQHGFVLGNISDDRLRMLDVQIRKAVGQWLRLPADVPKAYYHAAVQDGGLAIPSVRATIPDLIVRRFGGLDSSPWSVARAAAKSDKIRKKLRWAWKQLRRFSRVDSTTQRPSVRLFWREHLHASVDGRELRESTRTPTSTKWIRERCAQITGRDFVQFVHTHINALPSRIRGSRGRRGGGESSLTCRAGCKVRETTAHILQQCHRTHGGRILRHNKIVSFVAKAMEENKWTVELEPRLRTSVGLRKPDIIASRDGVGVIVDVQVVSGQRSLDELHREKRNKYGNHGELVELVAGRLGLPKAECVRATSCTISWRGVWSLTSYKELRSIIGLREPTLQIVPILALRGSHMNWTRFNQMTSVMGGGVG

## 334 nt vector RNA
RNA-primed reverse transcription relative to 254 nt R2 RNA, template jumps 3.9%
  binding signal: 0.44

## 254 nt R2 3' UTR RNA
RNA-primed reverse transcription without target DNA, template jumps 12.9%
  binding signal: 1

## 183 nt vector RNA
RNA-primed reverse transcription relative to 254 nt R2 RNA, template jumps 15.1%
  binding signal: 0.7
